Results: paper PMC7498318
Where two headings read alike, the source gives them in different places.

How the values were obtained:
Test in all cases: fluorescence anisotropy
hnRNPK R9 to S9 = hnRNPK R9 to S9 (human/mouse (100% identical), UniProt P61978 1-463, R247S;R256S;R258S;R268S;R287S;R296S;R299S;R316S;R326S)
hnRNPK full-length [1] = target: T1, hnRNPK full-length (human/mouse (100% identical), UniProt P61978 1-463)
hnRNPK KH3 = hnRNPK KH3 (human/mouse (100% identical), UniProt P61978 379-463)
hnRNPK deltaKH3 = hnRNPK deltaKH3 (human/mouse (100% identical), UniProt P61978 1-337)
hnRNPK full-length [2] = target: T1, hnRNPK full-length; remark: listed apart in the source
hnRNPK KH1 = hnRNPK KH1 (human/mouse (100% identical), UniProt P61978 37-120)
hnRNPK full-length [3] = target: T1, hnRNPK full-length; remark: listed apart in the source

| Binder | Kd (hnRNPK full-length [1]) [nM] | Kd (hnRNPK deltaKH3) [nM] | also measured |
| --- | --- | --- | --- |
| ATATTCCCTC (ssDNA) [M5' ssDNA] | 1400 ± 200 | – | Kd (hnRNPK R9 to S9): 3000 ± 100 nM; Kd (hnRNPK KH3): 8700 ± 1300 nM |
| GCCAACCUCUUCCCAUUUCCCACACUCCAACUCCCU (ssRNA) [Ucp2] | 44 ± 3 | 87 ± 9 | Kd (hnRNPK KH3): 11100 ± 600 nM |
| Exon 4 hp (structured_RNA) RNA: GCUGGCGACCUAUUCCCUUUGACGAUCCCUAGGUGGAGAUGGGGCAUGAGGAUCCUCCAGGGGAAUAGCUCACCACC | – | – | binding result (hnRNPK full-length [1]): no binding |
| GCAGCCCCAGUUUCAGCCCCUAUUUCUGUUUCUGUUUCUGC (structured_RNA) [(1,3)] | – | – | binding result (hnRNPK full-length [2]): no binding |
| GCAGCCCCAGCCCCAGCCCCUACCCCUGCCCCUGCCCCUGC (structured_RNA) [B motif RNA WT] | 61 ± 6 | 140 ± 30 | binding result (hnRNPK KH1): no binding |
| GCAGCCCCAGCCCCAGCCCCUACCCCUGCCCCUGUUUCUGC (structured_RNA) [(1,2,3,4,5)] | – | – | binding result (hnRNPK full-length [3]): binds |
| GCAGCCCCAGUUUCAGUUUUUAUUUCUGUUUCUGCCCCUGC (structured_RNA) [(1,6)] | – | – | binding result (hnRNPK full-length [2]): no binding |
| GCAGCCCCAGCCCCAGCCCCUACCCCUGUUUCUGUUUCUGC (structured_RNA) [(1,2,3,4)] | – | – | binding result (hnRNPK full-length [3]): binds |
| GGCUCCCCCGACCUCUGUGCUCCCCUCCCCCGACCUCUGUGC (ssRNA) [MYU lncRNA] | 70 ± 7 | 120 ± 10 | – |
| GCGCCUCCCGGGUUCAAGCGAUUCUCCUGCCUCAGCCUCCCGA (ssRNA) [Sirloin motif] | 690 ± 20 | 760 ± 40 | – |
| GCAGUUUCAGCCCCAGCCCCUAUUUCUGUUUCUGUUUCUGC (structured_RNA) [(2,3)] | 710 | – | – |
| GCAGCCCCAGCCCCAGCCCCUAUUUCUGUUUCUGUUUCUGC (structured_RNA) [(1,2,3)] | – | – | binding result (hnRNPK full-length [3]): binds |
| GUCAUUUUCUCCCUUUCUGUUUUUCUUC (ssRNA) [Rab7] | 110 ± 20 | 360 ± 80 | – |
| GGUCCCCCGCCUCAUUCGCCCCUCUGCUCCC (ssRNA) [CDK6 3'UTR] | 450 ± 60 | 710 ± 50 | Kd (hnRNPK KH3): 12900 ± 700 nM |
